The results in this text go back to PMC4032163.

Test [1] has as its target BG505 SOSIP.664 gp140 trimer (HIV-1 subtype A transmitted/founder virus BG505). As to the kind of experiment: native gel or EMSA; BN-PAGE, Coomassie blue staining, of 2G12-affinity-purified Env proteins and of SEC-purified trimers from stable cell lines and transient transfection. A general note: A gel shift assay detects complexes by their altered migration in electrophoresis.

Test [2] concerns the target uncleaved CZA97.012 gp140 (HIV-1 subtype C, CZA97.012 | not stated). The test can be described thus: SEC. For orientation: Size exclusion chromatography separates by hydrodynamic size, large species first.

By stoichiometry N is commonly meant the number of molecules, sites or subunits per partner or assembly. Substance BG505 SOSIP.664 gp140 trimer (complex) registered a stoichiometry N in test [1] of 3.

As to uncleaved CZA97.012 gp140, the stoichiometry N in test [2] was determined as 3.
